Test results: patent US20170306005A1 (NASCIENT, published 2017)

What was measured:
[1] = biological target: T1, human tenascin-C rCd4-His-FBG (rat; human, UniProt P05540 207-392, limits assumed); test: SPR off-rate screen, captured IgG4 supernatant, 25 C
T1 construct: domain: domains 3 and 4; C-terminal FBG fusion; biotinylated in the ELISA and HTRF screens; also called Hu TNC; human TNC rCd4-His-FBG; not shown: 6His tag
T1 sequence (chain (part 1 of 2)): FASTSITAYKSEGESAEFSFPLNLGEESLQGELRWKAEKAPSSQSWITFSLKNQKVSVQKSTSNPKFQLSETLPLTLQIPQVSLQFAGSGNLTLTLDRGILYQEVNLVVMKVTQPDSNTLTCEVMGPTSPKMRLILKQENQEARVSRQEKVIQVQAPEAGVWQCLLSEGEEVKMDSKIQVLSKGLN
T1 sequence (chain (part 2 of 2)): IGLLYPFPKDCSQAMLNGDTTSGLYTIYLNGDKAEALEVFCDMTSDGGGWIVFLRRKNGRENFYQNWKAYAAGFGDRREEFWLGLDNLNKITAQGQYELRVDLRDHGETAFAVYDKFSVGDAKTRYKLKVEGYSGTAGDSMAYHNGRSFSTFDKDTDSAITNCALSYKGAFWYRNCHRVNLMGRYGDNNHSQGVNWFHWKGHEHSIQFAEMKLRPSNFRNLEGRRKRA
In short: (§1)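 SPR at 25 °C: IgG4 (S241P) from culture supernatant, diluted 1:2 in 2×PBS-T, captured on anti-human Fc surface; antigen injected at a fixed 15 nM (human and mouse TNC rCd4-His-FBG) or 100 nM (human TNR rCd4-His-FBG), 30 μl/min. Association 1 min, dissociation 5 min; off-rates from reference-subtracted 1:1 fits.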

[2] = biological target: T2, mouse tenascin-C rCd4-His-FBG (rat; mouse, UniProt P05540 207-392, limits assumed); test: as above
T2 construct: domain: domains 3 and 4; C-terminal FBG fusion; biotinylated in the ELISA screen; also called Mu TNC; mouse TNC rCd4-His-FBG; not shown: 6His tag
T2 sequence (chain (part 1 of 2)): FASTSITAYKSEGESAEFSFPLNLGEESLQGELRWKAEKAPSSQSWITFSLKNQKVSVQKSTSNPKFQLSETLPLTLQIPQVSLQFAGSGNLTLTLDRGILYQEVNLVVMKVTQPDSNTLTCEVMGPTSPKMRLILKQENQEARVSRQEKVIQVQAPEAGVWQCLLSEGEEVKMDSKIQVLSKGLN
T2 sequence (chain (part 2 of 2)): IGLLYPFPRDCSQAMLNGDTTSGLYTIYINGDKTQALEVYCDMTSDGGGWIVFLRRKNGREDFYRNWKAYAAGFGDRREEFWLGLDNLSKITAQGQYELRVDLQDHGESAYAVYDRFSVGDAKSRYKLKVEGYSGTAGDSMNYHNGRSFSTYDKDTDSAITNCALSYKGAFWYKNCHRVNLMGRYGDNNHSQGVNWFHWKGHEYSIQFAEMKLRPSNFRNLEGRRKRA
In short: as §1

[3] = biological target: T1, human tenascin-C rCd4-His-FBG; test: SPR, captured purified IgG4, 37 C
[4] = biological target: T2, mouse tenascin-C rCd4-His-FBG; test: SPR, captured purified IgG4, 37 C
[5] = biological target: T3, dog tenascin-C rCD4-His-FBG (rat; dog, UniProt P05540 207-392, limits assumed); test: SPR, captured purified IgG4, 37 C
T3 construct: domain: domains 3 and 4; C-terminal FBG fusion; also called Dog TNC; not shown: 6His tag
T3 sequence (chain (part 1 of 2)): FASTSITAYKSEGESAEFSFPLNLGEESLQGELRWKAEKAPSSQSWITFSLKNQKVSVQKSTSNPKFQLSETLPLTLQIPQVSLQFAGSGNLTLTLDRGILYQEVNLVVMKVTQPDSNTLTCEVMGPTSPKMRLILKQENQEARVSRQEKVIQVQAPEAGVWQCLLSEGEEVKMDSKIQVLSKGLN
T3 sequence (chain (part 2 of 2)): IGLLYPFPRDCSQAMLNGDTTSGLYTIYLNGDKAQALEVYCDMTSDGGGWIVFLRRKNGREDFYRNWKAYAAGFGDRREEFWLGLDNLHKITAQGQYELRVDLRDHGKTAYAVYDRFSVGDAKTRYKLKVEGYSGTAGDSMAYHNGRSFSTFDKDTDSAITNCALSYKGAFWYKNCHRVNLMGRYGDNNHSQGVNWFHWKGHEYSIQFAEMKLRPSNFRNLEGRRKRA

[6] = biological target: T4, rat tenascin-C rCd4-His-FBG (rat, UniProt P05540 207-392, limits assumed); test: SPR, captured purified IgG4, 37 C
T4 construct: domain: domains 3 and 4; C-terminal FBG fusion; also called Rat TNC; rat TNC rCD4-His-FBG; not shown: 6His tag
T4 sequence (chain (part 1 of 2)): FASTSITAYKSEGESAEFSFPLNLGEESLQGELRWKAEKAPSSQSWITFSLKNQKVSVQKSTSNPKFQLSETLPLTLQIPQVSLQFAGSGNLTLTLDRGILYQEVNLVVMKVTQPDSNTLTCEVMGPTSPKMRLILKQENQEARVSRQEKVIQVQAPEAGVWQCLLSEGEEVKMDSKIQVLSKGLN
T4 sequence (chain (part 2 of 2)): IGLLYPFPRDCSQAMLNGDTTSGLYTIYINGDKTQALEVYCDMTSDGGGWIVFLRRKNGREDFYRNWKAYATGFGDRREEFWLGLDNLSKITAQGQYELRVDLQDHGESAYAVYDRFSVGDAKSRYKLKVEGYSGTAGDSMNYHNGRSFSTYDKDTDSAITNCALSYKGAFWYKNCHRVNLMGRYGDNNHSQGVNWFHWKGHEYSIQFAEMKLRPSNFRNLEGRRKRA

B1: 165_13_C3 human IgG4 (antibody, V domains shown)
VH: QVQLVESGGGLVQPGRSLRLSCAASGFTFDDYAMHWVRQAPGKGLEWVSGISGSGGSTYYADSVKGRFTISRDNAKNSLYLQMNSLRAEDTALYYCAKSYQSDEDAFDIWGQGTMVTVSS
VL: DIQMTQSPASLPTPVGDRVTITCRASQYIQGFLNWYQQKPGKAPKLLIYDASNLETGVPSRFSGSGSGTDFTLTISSLQPEDFATYYCQQSYSTPQTFGQGTKVDIKR
notes: also called IgG4 C3; C3 IgG4 MAb
koff [1]: < 1e-05 s⁻¹
koff [2]: 3.3e-06 s⁻¹
Kd [3]: 0.072 nM
koff [3]: 0.00083 s⁻¹
kon [3]: 1.16e+07 M⁻¹ s⁻¹
Kd [4]: 0.46 nM
koff [4]: 0.000445 s⁻¹
kon [4]: 972000 M⁻¹ s⁻¹
Kd [5]: 1.8 nM
koff [5]: 0.0108 s⁻¹
kon [5]: 5.97e+06 M⁻¹ s⁻¹
Kd [6]: 1.22 nM
koff [6]: 0.00473 s⁻¹
kon [6]: 3.89e+06 M⁻¹ s⁻¹
